B1: FKRP-282 (C-terminal truncation mutant of FKRP) (domain or fragment, human, UniProt Q9H9S5 1-282, looked up)
chain: MRLTRCQAALAAAITLNLLVLFYVSWLQHQPRNSRARGPRRASAAGPRVTVLVREFEAFDNAVPELVDSFLQQDPAQPVVVAADTLPYPPLALPRIPNVRLALLQPALDRPAAASRPETYVATEFVALVPDGARAEAPGLLERMVEALRAGSARLVAAPVATANPARCLALNVSLREWTARYGAAPAAPRCDALDGDAVVLLRARDLFNLSAPLARPVGTSLFLQTALRGWAVQLLDLTFAAARQPPLATAHARWKAEREGRARRAALLRALGIRLVSWEGG
notes: fukutin-related protein (FKRP), human; C-terminal truncation, last amino acid 282; source: COS-7, transfected, in lysate (5 mM NEM)
B2: FKRP-157 (C-terminal truncation mutant of FKRP) (domain or fragment, human, UniProt Q9H9S5 1-157, looked up)
chain: MRLTRCQAALAAAITLNLLVLFYVSWLQHQPRNSRARGPRRASAAGPRVTVLVREFEAFDNAVPELVDSFLQQDPAQPVVVAADTLPYPPLALPRIPNVRLALLQPALDRPAAASRPETYVATEFVALVPDGARAEAPGLLERMVEALRAGSARLVA
notes: fukutin-related protein (FKRP), human; source: COS-7, transfected, in lysate (5 mM NEM)
B3: FKRP Cys168Ser (natural protein, human, UniProt Q9H9S5 1-495, looked up)
chain: MRLTRCQAALAAAITLNLLVLFYVSWLQHQPRNSRARGPRRASAAGPRVTVLVREFEAFDNAVPELVDSFLQQDPAQPVVVAADTLPYPPLALPRIPNVRLALLQPALDRPAAASRPETYVATEFVALVPDGARAEAPGLLERMVEALRAGSARLVAAPVATANPARSLALNVSLREWTARYGAAPAAPRCDALDGDAVVLLRARDLFNLSAPLARPVGTSLFLQTALRGWAVQLLDLTFAAARQPPLATAHARWKAEREGRARRAALLRALGIRLVSWEGGRLEWFGCNKETTRCFGTVVGDTPAYLYEERWTPPCCLRALRETARYVVGVLEAAGVRYWLEGGSLLGAARHGDIIPWDYDVDLGIYLEDVGNCEQLRGAEAGSVVDERGFVWEKAVEGDFFRVQYSESNHLHVDLWPFYPRNGVMTKDTWLDHRQDVEFPEHFLQPLVPLPFAGFVAQAPNNYRRFLELKFGPGVIENPQYPNPALLSLTGSG
notes: fukutin-related protein (FKRP), human, 495 aa, made from pcDNA3.1-FKRP by site-directed mutagenesis; also called FKRP-C168S; source: COS-7, transfected, in lysate (5 mM NEM)
B4: FKRP Cys191Ser (natural protein, human, UniProt Q9H9S5 1-495, looked up)
chain: MRLTRCQAALAAAITLNLLVLFYVSWLQHQPRNSRARGPRRASAAGPRVTVLVREFEAFDNAVPELVDSFLQQDPAQPVVVAADTLPYPPLALPRIPNVRLALLQPALDRPAAASRPETYVATEFVALVPDGARAEAPGLLERMVEALRAGSARLVAAPVATANPARCLALNVSLREWTARYGAAPAAPRSDALDGDAVVLLRARDLFNLSAPLARPVGTSLFLQTALRGWAVQLLDLTFAAARQPPLATAHARWKAEREGRARRAALLRALGIRLVSWEGGRLEWFGCNKETTRCFGTVVGDTPAYLYEERWTPPCCLRALRETARYVVGVLEAAGVRYWLEGGSLLGAARHGDIIPWDYDVDLGIYLEDVGNCEQLRGAEAGSVVDERGFVWEKAVEGDFFRVQYSESNHLHVDLWPFYPRNGVMTKDTWLDHRQDVEFPEHFLQPLVPLPFAGFVAQAPNNYRRFLELKFGPGVIENPQYPNPALLSLTGSG
notes: fukutin-related protein (FKRP), human, 495 aa, made from pcDNA3.1-FKRP by site-directed mutagenesis; also called FKRP-C191S; source: COS-7, transfected, in lysate (5 mM NEM)
B5: FKRP-Cys289Ser (natural protein, human, UniProt Q9H9S5 1-495, looked up)
chain: MRLTRCQAALAAAITLNLLVLFYVSWLQHQPRNSRARGPRRASAAGPRVTVLVREFEAFDNAVPELVDSFLQQDPAQPVVVAADTLPYPPLALPRIPNVRLALLQPALDRPAAASRPETYVATEFVALVPDGARAEAPGLLERMVEALRAGSARLVAAPVATANPARCLALNVSLREWTARYGAAPAAPRCDALDGDAVVLLRARDLFNLSAPLARPVGTSLFLQTALRGWAVQLLDLTFAAARQPPLATAHARWKAEREGRARRAALLRALGIRLVSWEGGRLEWFGSNKETTRCFGTVVGDTPAYLYEERWTPPCCLRALRETARYVVGVLEAAGVRYWLEGGSLLGAARHGDIIPWDYDVDLGIYLEDVGNCEQLRGAEAGSVVDERGFVWEKAVEGDFFRVQYSESNHLHVDLWPFYPRNGVMTKDTWLDHRQDVEFPEHFLQPLVPLPFAGFVAQAPNNYRRFLELKFGPGVIENPQYPNPALLSLTGSG
notes: fukutin-related protein (FKRP), human, 495 aa, made from pcDNA3.1-FKRP by site-directed mutagenesis; also called FKRP-C289S; source: COS-7, transfected, in lysate (5 mM NEM)
B6: FKRP Cys296Ser (natural protein, human, UniProt Q9H9S5 1-495, looked up)
chain: MRLTRCQAALAAAITLNLLVLFYVSWLQHQPRNSRARGPRRASAAGPRVTVLVREFEAFDNAVPELVDSFLQQDPAQPVVVAADTLPYPPLALPRIPNVRLALLQPALDRPAAASRPETYVATEFVALVPDGARAEAPGLLERMVEALRAGSARLVAAPVATANPARCLALNVSLREWTARYGAAPAAPRCDALDGDAVVLLRARDLFNLSAPLARPVGTSLFLQTALRGWAVQLLDLTFAAARQPPLATAHARWKAEREGRARRAALLRALGIRLVSWEGGRLEWFGCNKETTRSFGTVVGDTPAYLYEERWTPPCCLRALRETARYVVGVLEAAGVRYWLEGGSLLGAARHGDIIPWDYDVDLGIYLEDVGNCEQLRGAEAGSVVDERGFVWEKAVEGDFFRVQYSESNHLHVDLWPFYPRNGVMTKDTWLDHRQDVEFPEHFLQPLVPLPFAGFVAQAPNNYRRFLELKFGPGVIENPQYPNPALLSLTGSG
notes: fukutin-related protein (FKRP), human, 495 aa, made from pcDNA3.1-FKRP by site-directed mutagenesis; also called FKRP-C296S; source: COS-7, transfected, in lysate (5 mM NEM)
B7: FKRP Cys375Ser (natural protein, human, UniProt Q9H9S5 1-495, looked up)
chain: MRLTRCQAALAAAITLNLLVLFYVSWLQHQPRNSRARGPRRASAAGPRVTVLVREFEAFDNAVPELVDSFLQQDPAQPVVVAADTLPYPPLALPRIPNVRLALLQPALDRPAAASRPETYVATEFVALVPDGARAEAPGLLERMVEALRAGSARLVAAPVATANPARCLALNVSLREWTARYGAAPAAPRCDALDGDAVVLLRARDLFNLSAPLARPVGTSLFLQTALRGWAVQLLDLTFAAARQPPLATAHARWKAEREGRARRAALLRALGIRLVSWEGGRLEWFGCNKETTRCFGTVVGDTPAYLYEERWTPPCCLRALRETARYVVGVLEAAGVRYWLEGGSLLGAARHGDIIPWDYDVDLGIYLEDVGNSEQLRGAEAGSVVDERGFVWEKAVEGDFFRVQYSESNHLHVDLWPFYPRNGVMTKDTWLDHRQDVEFPEHFLQPLVPLPFAGFVAQAPNNYRRFLELKFGPGVIENPQYPNPALLSLTGSG
notes: fukutin-related protein (FKRP), human, 495 aa, made from pcDNA3.1-FKRP by site-directed mutagenesis; also called FKRP-C375S; source: COS-7, transfected, in lysate (5 mM NEM)
B8: Fukutin-related protein (FKRP), human, wild type, untagged (pcDNA3.1-FKRP) (natural protein, UniProt Q9H9S5 1-495, looked up)
chain: MRLTRCQAALAAAITLNLLVLFYVSWLQHQPRNSRARGPRRASAAGPRVTVLVREFEAFDNAVPELVDSFLQQDPAQPVVVAADTLPYPPLALPRIPNVRLALLQPALDRPAAASRPETYVATEFVALVPDGARAEAPGLLERMVEALRAGSARLVAAPVATANPARCLALNVSLREWTARYGAAPAAPRCDALDGDAVVLLRARDLFNLSAPLARPVGTSLFLQTALRGWAVQLLDLTFAAARQPPLATAHARWKAEREGRARRAALLRALGIRLVSWEGGRLEWFGCNKETTRCFGTVVGDTPAYLYEERWTPPCCLRALRETARYVVGVLEAAGVRYWLEGGSLLGAARHGDIIPWDYDVDLGIYLEDVGNCEQLRGAEAGSVVDERGFVWEKAVEGDFFRVQYSESNHLHVDLWPFYPRNGVMTKDTWLDHRQDVEFPEHFLQPLVPLPFAGFVAQAPNNYRRFLELKFGPGVIENPQYPNPALLSLTGSG
modifications: N-linked glycans of high mannose and/or hybrid type at Asn172 and Asn209
notes: fukutin-related protein (FKRP), human, 495 aa; Same construct expressed in two cell lines; the assay's format names the cell line; also called hFKRP; full length FKRP; source: COS-7 or BHK-21, transfected (pcDNA3.1-FKRP), in lysate
B9: FKRP-Asn172Gln (natural protein, human, UniProt Q9H9S5 1-495, looked up)
chain: MRLTRCQAALAAAITLNLLVLFYVSWLQHQPRNSRARGPRRASAAGPRVTVLVREFEAFDNAVPELVDSFLQQDPAQPVVVAADTLPYPPLALPRIPNVRLALLQPALDRPAAASRPETYVATEFVALVPDGARAEAPGLLERMVEALRAGSARLVAAPVATANPARCLALQVSLREWTARYGAAPAAPRCDALDGDAVVLLRARDLFNLSAPLARPVGTSLFLQTALRGWAVQLLDLTFAAARQPPLATAHARWKAEREGRARRAALLRALGIRLVSWEGGRLEWFGCNKETTRCFGTVVGDTPAYLYEERWTPPCCLRALRETARYVVGVLEAAGVRYWLEGGSLLGAARHGDIIPWDYDVDLGIYLEDVGNCEQLRGAEAGSVVDERGFVWEKAVEGDFFRVQYSESNHLHVDLWPFYPRNGVMTKDTWLDHRQDVEFPEHFLQPLVPLPFAGFVAQAPNNYRRFLELKFGPGVIENPQYPNPALLSLTGSG
notes: fukutin-related protein (FKRP), human, 495 aa, made from pcDNA3.1-FKRP by site-directed mutagenesis; source: COS-7, transfected, in lysate (5 mM NEM)
B10: FKRP-Asn209Gln (natural protein, human, UniProt Q9H9S5 1-495, looked up)
chain: MRLTRCQAALAAAITLNLLVLFYVSWLQHQPRNSRARGPRRASAAGPRVTVLVREFEAFDNAVPELVDSFLQQDPAQPVVVAADTLPYPPLALPRIPNVRLALLQPALDRPAAASRPETYVATEFVALVPDGARAEAPGLLERMVEALRAGSARLVAAPVATANPARCLALNVSLREWTARYGAAPAAPRCDALDGDAVVLLRARDLFQLSAPLARPVGTSLFLQTALRGWAVQLLDLTFAAARQPPLATAHARWKAEREGRARRAALLRALGIRLVSWEGGRLEWFGCNKETTRCFGTVVGDTPAYLYEERWTPPCCLRALRETARYVVGVLEAAGVRYWLEGGSLLGAARHGDIIPWDYDVDLGIYLEDVGNCEQLRGAEAGSVVDERGFVWEKAVEGDFFRVQYSESNHLHVDLWPFYPRNGVMTKDTWLDHRQDVEFPEHFLQPLVPLPFAGFVAQAPNNYRRFLELKFGPGVIENPQYPNPALLSLTGSG
notes: as for B9
B11: FKRP-Asn172Gln/Asn209Gln (natural protein, human, UniProt Q9H9S5 1-495, looked up)
chain: MRLTRCQAALAAAITLNLLVLFYVSWLQHQPRNSRARGPRRASAAGPRVTVLVREFEAFDNAVPELVDSFLQQDPAQPVVVAADTLPYPPLALPRIPNVRLALLQPALDRPAAASRPETYVATEFVALVPDGARAEAPGLLERMVEALRAGSARLVAAPVATANPARCLALQVSLREWTARYGAAPAAPRCDALDGDAVVLLRARDLFQLSAPLARPVGTSLFLQTALRGWAVQLLDLTFAAARQPPLATAHARWKAEREGRARRAALLRALGIRLVSWEGGRLEWFGCNKETTRCFGTVVGDTPAYLYEERWTPPCCLRALRETARYVVGVLEAAGVRYWLEGGSLLGAARHGDIIPWDYDVDLGIYLEDVGNCEQLRGAEAGSVVDERGFVWEKAVEGDFFRVQYSESNHLHVDLWPFYPRNGVMTKDTWLDHRQDVEFPEHFLQPLVPLPFAGFVAQAPNNYRRFLELKFGPGVIENPQYPNPALLSLTGSG
notes: fukutin-related protein (FKRP), human, 495 aa, made from pcDNA3.1-FKRP by site-directed mutagenesis; also called double mutant; source: COS-7, transfected, in lysate (5 mM NEM)
B12: FKRP-373 (C-terminal truncation mutant of FKRP) (domain or fragment, human, UniProt Q9H9S5 1-373, looked up)
chain: MRLTRCQAALAAAITLNLLVLFYVSWLQHQPRNSRARGPRRASAAGPRVTVLVREFEAFDNAVPELVDSFLQQDPAQPVVVAADTLPYPPLALPRIPNVRLALLQPALDRPAAASRPETYVATEFVALVPDGARAEAPGLLERMVEALRAGSARLVAAPVATANPARCLALNVSLREWTARYGAAPAAPRCDALDGDAVVLLRARDLFNLSAPLARPVGTSLFLQTALRGWAVQLLDLTFAAARQPPLATAHARWKAEREGRARRAALLRALGIRLVSWEGGRLEWFGCNKETTRCFGTVVGDTPAYLYEERWTPPCCLRALRETARYVVGVLEAAGVRYWLEGGSLLGAARHGDIIPWDYDVDLGIYLEDVG
notes: fukutin-related protein (FKRP), human; C-terminal truncation, last amino acid 373; source: COS-7, transfected, in lysate (5 mM NEM)

Legend:
[1] = target: FKRP Cys317Ser/Cys318Ser (human) (UniProt Q9H9S5); test: SDS-PAGE (non-reducing and reducing) with Western blot; cleared COS-7 lysates prepared with 5 mM NEM; untreated or reduced with 330-400 mM DTT at RT for 30 min; 4-12% gel; detection with FKRP207 antibody
[2] = target: the molecule itself; test: as above

Molecule	stoichiometry N [1]	stoichiometry N [2]
FKRP Cys317Ser/Cys318Ser (from UniProt Q9H9S5 1-495) (natural protein)	2	–
B1	–	2
B2	–	2
B3	–	2
B4	–	2
B5	–	2
B6	–	2
B7	–	2
B8	–	2
B9	–	2
B10	–	2
B11	–	2
B12	–	2

Source: publication PMC3160285, “Fukutin-Related Protein Resides in the Golgi Cisternae of Skeletal Muscle Fibres and Forms Disulfide-Linked Homodimers via an N-Terminal Interaction” (PLoS ONE, 2011)
